Consider 37 sequences from the supplement of paper PMC9732359.

The nature of the data set: protein stability index of a GFP-peptide fusion (yeast GPS) (PSI 1-4); higher = more stable; sorted into four equal gates, so the index is relative within each strain. An outline of the steps: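 Yeast carrying a pooled library were grown to mid-log phase in leucine-free medium. Each library plasmid expresses Cherry and has a tiled 17-residue yeast protein peptide fused downstream of GFP. Cells were sorted into four equal gates by GFP/Cherry ratio, and plasmids from each gate were PCR-amplified, Illumina-sequenced and assigned to strains by barcode. Summing, across gates, the read frequency times the gate number gave each peptide's protein stability index.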

± gives the uncertainty stated by the source.

Turning to NIAKDLKWKKGIRGKLV [SMC1], the protein stability index by setting is: (doa10∆) 1.37 ± 0.12; (pdr5∆) 2.04 ± 0.14; (san1∆) 2.23 ± 0.12.
Consider NIDETSDEVSRGIPRLS [SMC4], for which the protein stability index amounted to 3.06 ± 0.2 (doa10∆) and 2.97 ± 0.22 (san1∆).
With NILWAIYNSASKASMQK [YCS4], the protein stability index (doa10∆) was found to be 1.66 ± 0.13, the protein stability index (pdr5∆) came out at 2.11 ± 0.13, the protein stability index (san1∆) is 1.58 ± 0.22 and the protein stability index (ubr1∆) was 2.18 ± 0.077.
With NINEVKKASDLVDTPSN [NUT1], the protein stability index (doa10∆) was found to be 3.14 ± 0.083, the protein stability index (pdr5∆) is 2.97 ± 0.085, the protein stability index (san1∆) came to 3.23 ± 0.065 and the protein stability index (ubr1∆) stood at 3.27 ± 0.07.
On to NIPKPLNSYHIKNGRIY [RGR1], for which the protein stability index by setting is: (doa10∆) 2.28 ± 0.04; (pdr5∆) 2.18 ± 0.03; (san1∆) 1.97 ± 0.047; (ubr1∆) 2.14 ± 0.027.
Turning to NIRSQLLSENRSEKSTT [SRP54], the protein stability index was 3.04 ± 0.06 (doa10∆), 3 ± 0.1 (pdr5∆), 3.01 ± 0.055 (san1∆) and 3.13 ± 0.038 (ubr1∆).
On to NITDYETHPDNSNKQAV [BRR2], for which the protein stability index (doa10∆) is 2.81 ± 0.047, the protein stability index (pdr5∆) was found to be 3 ± 0.045, the protein stability index (san1∆) amounted to 2.73 ± 0.037 and the protein stability index (ubr1∆) amounted to 2.9 ± 0.034.
Turning to NIVDSSAAGNKAIPTFS [YIL149C/MLP2], the protein stability index by setting is: (doa10∆) 2.31 ± 0.066; (pdr5∆) 2.44 ± 0.077; (san1∆) 3 ± 0.057; (ubr1∆) 2.44 ± 0.059.
Take NIWGTVRTNRFDIIEES [ECM29]: the protein stability index was found to be 2.23 ± 0.23 (doa10∆), 3.35 ± 0.12 (pdr5∆), 2.54 ± 0.11 (san1∆) and 2.98 ± 0.12 (ubr1∆).
For the sequence NIYNFSPSERIEPLEIN [BRR2], the protein stability index amounted to 2.39 ± 0.064 (doa10∆), 2.78 ± 0.051 (pdr5∆), 1.93 ± 0.056 (san1∆) and 2.2 ± 0.05 (ubr1∆).
Turning to NKHLTTLVEIFLERKCV [SSN3], the protein stability index was determined as 2.6 ± 0.17 (doa10∆), 2.73 ± 0.2 (pdr5∆) and 3.2 ± 0.17 (ubr1∆).
Regarding NKIINWEISNPDFLSKY [NUT1], the protein stability index is 2.06 ± 0.047 (doa10∆), 2.41 ± 0.045 (pdr5∆), 2.11 ± 0.11 (san1∆) and 1.8 ± 0.05 (ubr1∆).
In the same order, the values of NKIRNLELPLCPYCYKK [SIR2] are 2.52 ± 0.055, 1.95 ± 0.062, 1.97 ± 0.069 and 1.98 ± 0.074.
As to NKITNQGVTCLHLAVGK [NAS6], the protein stability index is 1.4 ± 0.2 (doa10∆), 1.83 ± 0.057 (pdr5∆) and 2.01 ± 0.075 (ubr1∆).
On to NKKSEENEMIKPMNKGQ [SWP82], for which the protein stability index by setting is: (doa10∆) 3.09 ± 0.18; (pdr5∆) 3.41 ± 0.095; (san1∆) 3.39 ± 0.067; (ubr1∆) 3.39 ± 0.26.
NKLGNDPSLNLKLLAKS [BRR2]: the protein stability index turned out to be 2.64 ± 0.062 (doa10∆), 2.56 ± 0.079 (pdr5∆), 2.86 ± 0.07 (san1∆) and 2.55 ± 0.096 (ubr1∆).
As for NKLGNKRLTEDERIEKE [CDC53], the protein stability index is, setting by setting: (doa10∆) 2.38 ± 0.15; (pdr5∆) 3.13 ± 0.095; (san1∆) 2.31 ± 0.059; (ubr1∆) 2.42 ± 0.11.
Regarding NKLLRRKLMEMENILQR [YIL149C/MLP2], the protein stability index was determined as 3.41 ± 0.2 (doa10∆) and 3.33 ± 0.11 (san1∆).
Turning to NKLTILGRDYPIEVDEE [IRR1], the protein stability index runs as follows: (doa10∆) 2.28 ± 0.1; (pdr5∆) 2.56 ± 0.12; (san1∆) 2.38 ± 0.11; (ubr1∆) 2.64 ± 0.066.
The like results for NKQIEILTDLVNYRHFK [ITC1] were, in that order, 2.93 ± 0.042, 2.99 ± 0.036, 3.03 ± 0.043 and 2.75 ± 0.036.
Take NKSRSSGHFSTDSRTGQ [CDC53]: the protein stability index was 3.03 ± 0.054 (doa10∆), 3.05 ± 0.052 (pdr5∆), 3.12 ± 0.041 (san1∆) and 3.14 ± 0.039 (ubr1∆).
For the sequence NKYANNDFANNLPKEGD [CSL4], the protein stability index is 3.14 ± 0.067 (doa10∆), 3 ± 0.056 (pdr5∆), 2.9 ± 0.065 (san1∆) and 2.4 ± 0.071 (ubr1∆).
Regarding NKYPELLGKDNEDDALI [AAR2], the protein stability index is 3.33 ± 0.1 (doa10∆), 3.19 ± 0.089 (pdr5∆), 3.33 ± 0.051 (san1∆) and 3.02 ± 0.11 (ubr1∆).
The like results for NLATWYHSAGGRDKHAL [SSN3] were, in that order, 3.49 ± 0.17, 3.54 ± 0.15, 3.16 ± 0.11 and 3.42 ± 0.08.
NLEESSKLDIYTQQQAL [RET1]: the protein stability index (doa10∆) was 2.9 ± 0.087, the protein stability index (pdr5∆) came out at 2.77 ± 0.078, the protein stability index (san1∆) was found to be 2.47 ± 0.07 and the protein stability index (ubr1∆) turned out to be 2.94 ± 0.079.
NLEIPAYEFDGDKVIVG [RIP1]: the protein stability index stood at 2.71 ± 0.07 (doa10∆), 2.61 ± 0.093 (pdr5∆), 2.65 ± 0.064 (san1∆) and 2.72 ± 0.077 (ubr1∆).
The sequence NLENHFKKSKIDHINEE [SCL1] registered a protein stability index (doa10∆) of 2.74 ± 0.072, a protein stability index (pdr5∆) of 3.16 ± 0.075, a protein stability index (san1∆) of 2.64 ± 0.065 and a protein stability index (ubr1∆) of 2.58 ± 0.047.
With NLETLVTTKDDLSGADI [RPT2], the protein stability index is 3.15 ± 0.067 (doa10∆), 3.34 ± 0.085 (pdr5∆), 3.27 ± 0.037 (san1∆) and 3.34 ± 0.057 (ubr1∆).
Regarding NLGSNVRNSFPLDEIPV [REC8], the protein stability index by setting is: (doa10∆) 2.95 ± 0.074; (pdr5∆) 2.98 ± 0.13; (san1∆) 2.88 ± 0.087; (ubr1∆) 3.06 ± 0.058.
Consider NLGSRTKNNTQASGITA [SSN3], for which the protein stability index runs as follows: (doa10∆) 2.44 ± 0.065; (pdr5∆) 2.38 ± 0.045; (san1∆) 2.18 ± 0.054; (ubr1∆) 2.65 ± 0.043.
In turn, NLINLSIGASIADLASL [YCS4] came in with a protein stability index (doa10∆) of 2.45 ± 0.055, a protein stability index (pdr5∆) of 2.44 ± 0.052, a protein stability index (san1∆) of 2.39 ± 0.071 and a protein stability index (ubr1∆) of 2.69 ± 0.042.
Regarding NLKLISVSLVDEFPSEL [SIR4], the protein stability index is 2.57 ± 0.061 (doa10∆), 2.6 ± 0.052 (pdr5∆), 2.5 ± 0.06 (san1∆) and 2.6 ± 0.033 (ubr1∆).
The like results for NLLESITKLLEINLSKI [YCS4] were, in that order, 2.73 ± 0.057, 2.55 ± 0.043, 2.94 ± 0.036 and 2.77 ± 0.034.
For NLLLRELNVEKLNTFNL [SRP72], the protein stability index worked out at 2.71 ± 0.15 (doa10∆), 3.41 ± 0.2 (pdr5∆), 2.95 ± 0.099 (san1∆) and 2.95 ± 0.13 (ubr1∆).
As for NLLSKRNQEKKMEKKKS [SNM1], the protein stability index by setting is: (doa10∆) 3.09 ± 0.16; (pdr5∆) 3.38 ± 0.28.
As to NLNELESQLQMDRTSLR [SMC3], the protein stability index (doa10∆) is 2.57 ± 0.15, the protein stability index (pdr5∆) was found to be 2.59 ± 0.16 and the protein stability index (san1∆) came out at 2.5 ± 0.22.
Turning to NLNRAFNGDQVIVELLP [DIS3], the protein stability index is, setting by setting: (doa10∆) 3.17 ± 0.11; (pdr5∆) 2.92 ± 0.18; (ubr1∆) 3.45 ± 0.15.
